Laboratory results published in the RNAGym collection of RNA variant scans (doi:10.7554/elife.80360).

B1: Twister Ribozyme (parent)
chain: AACACUGCCAAUGCCGGUCCCAAGCCCGGAUAAAAGUGGAGGGGGCGG

Variants of: B1
Test: self-cleavage, relative activity (ratio to wild type); higher = more cleavage; co-transcriptional

Variant | self-cleavage
AACACUGCCAAUGCCGGUCCAAAGCCCGGAUAUAAGUGGAGGGGGCGG [C21A A33U] | 0.102
AACACUGCCAAUGCCGGUCCAAAGCCCAGAUAAAAGUGGAGGGGGCGG [C21A G28A] | 0.0792
AACACUGCCAAUGCCGGUCCUGAGCCCGGAUAAAAGUGGAGGGGGCGG [C21U A22G] | 0.0633
AACACUGCCAAUGCCGGUCCUCAGCCCGGAUAAAAGUGGAGGGGGCGG [C21U A22C] | 0.0923
AACACUGCCAAUGCCGGUCCUAAGCCCGGAUAAAAGUGGGGGGGGCGG [C21U A40G] | 0.0774
AACACUGCCAAUGCCGGUCCUAAGCCCGGAUAAAAGUGGCGGGGGCGG [C21U A40C] | 0.109
AACACUGCCAAUGCCGGUCCUAAGCCCGGAUAAAAGUGGUGGGGGCGG [C21U A40U] | 0.0831
AACACUGCCAAUGCCGGUCCAAAGCCCGGAUAAAUGUGGAGGGGGCGG [C21A A35U] | 0.104
AACACUGCCAAUGCCGGUCCGAAGCCCGAAUAAAAGUGGAGGGGGCGG [C21G G29A] | 0.0338
AACACUGCCAAUGCCGGUCCGAAGGCCGGAUAAAAGUGGAGGGGGCGG [C21G C25G] | 0.0701
AACACUGCCAAUGCCGGUCCGAAGUCCGGAUAAAAGUGGAGGGGGCGG [C21G C25U] | 0.0625
AACACUGCCAAUGCCGGUCCAAAGCCCGGAUAAAAGUAGAGGGGGCGG [C21A G38A] | 0.109
AACACUGCCAAUGCCGGUCCAAAGCCCGGAUAAAAGUUGAGGGGGCGG [C21A G38U] | 0.0847
AACACUGCCAAUGCCGGUCCGAAGCACGGAUAAAAGUGGAGGGGGCGG [C21G C26A] | 0.0789
AACACUGCCAAUGCCGGUCCGAAGCUCGGAUAAAAGUGGAGGGGGCGG [C21G C26U] | 0.0515
AACACUGCCAAUGCCGGUCCUAAUCCCGGAUAAAAGUGGAGGGGGCGG [C21U G24U] | 0.106
AACACUGCCAAUGCCGGUCCUAACCCCGGAUAAAAGUGGAGGGGGCGG [C21U G24C] | 0.0925
AACACUGCCAAUGCCGGUCCGAAGCCCGGAUAAAGGUGGAGGGGGCGG [C21G A35G] | 0.0519
AACACUGCCAAUGCCGGUCCGAAGCCCGGAUAAAUGUGGAGGGGGCGG [C21G A35U] | 0.0529
AACACUGCCAAUGCCGGUCCGAAGCCCGGAUAAACGUGGAGGGGGCGG [C21G A35C] | 0.0454
AACACUGCCAAUGCCGGUCCUAAGCCCGGAUAAAAGUGGAUGGGGCGG [C21U G41U] | 0.136
AACACUGCCAAUGCCGGUCCUAAGCCCGGAUAAAAGUGGAAGGGGCGG [C21U G41A] | 0.641
AACACUGCCAAUGCCGGUCCUAAGCCCGGAUAAAAGUGGACGGGGCGG [C21U G41C] | 0.434
AACACUGCCAAUGCCGGUCCUAAGCCCGGAUAAAGGUGGAGGGGGCGG [C21U A35G] | 0.108
AACACUGCCAAUGCCGGUCCUAAGCCCGGAUAAACGUGGAGGGGGCGG [C21U A35C] | 0.154
AACACUGCCAAUGCCGGUCCGAAGCCCGGAUAAAAGUGGAGGAGGCGG [C21G G43A] | 0.0243
AACACUGCCAAUGCCGGUCCGAAGCCCGGAUAAAAGUGGAGGUGGCGG [C21G G43U] | 0.0954

Variant | self-cleavage
AACACUGCCAAUGCCGGUCCUAAGCCCGGAUGAAAGUGGAGGGGGCGG [C21U A32G] | 0.0636
AACACUGCCAAUGCCGGUCCAAAGCCCGGAUAAAAGUGGGGGGGGCGG [C21A A40G] | 0.0639
AACACUGCCAAUGCCGGUCCUAAGCCCGGAUAAAAGUGGAGGGGGGGG [C21U C46G] | 0.135
AACACUGCCAAUGCCGGUCCUAAGCCCGGAUAAAAGUGGAGGGGGAGG [C21U C46A] | 0.107
AACACUGCCAAUGCCGGUCCAAAGCCCGGAUAAAAGUGCAGGGGGCGG [C21A G39C] | 0.116
AACACUGCCAAUGCCGGUCCGUAGCCCGGAUAAAAGUGGAGGGGGCGG [C21G A22U] | 0.118
AACACUGCCAAUGCCGGUCCGGAGCCCGGAUAAAAGUGGAGGGGGCGG [C21G A22G] | 0.135
AACACUGCCAAUGCCGGUCCGCAGCCCGGAUAAAAGUGGAGGGGGCGG [C21G A22C] | 0.0386
AACACUGCCAAUGCCGGUCCGAAGCCCGGAUAAAAGUGGAGCGGGCGG [C21G G42C] | 0.13
AACACUGCCAAUGCCGGUCCGAAGCCCGGAUAAAAGUGGAGAGGGCGG [C21G G42A] | 0.0891
AACACUGCCAAUGCCGGUCCAAAGCCCGGAUAAAAGUGGAGUGGGCGG [C21A G42U] | 0.0873
AACACUGCCAAUGCCGGUCCAAAGCCCGGAUAAAAGUGGAGCGGGCGG [C21A G42C] | 0.15
AACACUGCCAAUGCCGGUCCAAAGCCCGGAUAAAAGUGGAGAGGGCGG [C21A G42A] | 0.0769
AACACUGCCAAUGCCGGUCCGAAGCCCGGAUAAAAGUGUAGGGGGCGG [C21G G39U] | 0.0469
AACACUGCCAAUGCCGGUCCUAAGCCCGUAUAAAAGUGGAGGGGGCGG [C21U G29U] | 0.0831
AACACUGCCAAUGCCGGUCCGAAGCCCGGAUAUAAGUGGAGGGGGCGG [C21G A33U] | 0.0662
AACACUGCCAAUGCCGGUCCUAAGCCCGGGUAAAAGUGGAGGGGGCGG [C21U A30G] | 0.097
AACACUGCCAAUGCCGGUCCGAAGCCCGGAUAAAAGUGGAAGGGGCGG [C21G G41A] | 0.159
AACACUGCCAAUGCCGGUCCGAGGCCCGGAUAAAAGUGGAGGGGGCGG [C21G A23G] | 0.11
AACACUGCCAAUGCCGGUCCGAUGCCCGGAUAAAAGUGGAGGGGGCGG [C21G A23U] | 0.032
AACACUGCCAAUGCCGGUCCGACGCCCGGAUAAAAGUGGAGGGGGCGG [C21G A23C] | 0.0558
AACACUGCCAAUGCCGGUCCGAAGCCCGGAUAAAAGUGGAGGGGGAGG [C21G C46A] | 0.115
AACACUGCCAAUGCCGGUCCGAAGCCCGGAUAAAAGUGGAGGGGGGGG [C21G C46G] | 0.113
AACACUGCCAAUGCCGGUCCUAAGCCCGGAUAGAAGUGGAGGGGGCGG [C21U A33G] | 0.146
AACACUGCCAAUGCCGGUCCAAAGCCCGGAUAAAAGUGGAGGGAGCGG [C21A G44A] | 0.113
AACACUGCCAAUGCCGGUCCAAAGCCCGGAUAAAAGUGGAGGGUGCGG [C21A G44U] | 0.108
AACACUGCCAAUGCCGGUCCGAAGCCUGGAUAAAAGUGGAGGGGGCGG [C21G C27U] | 0.0651
